Laboratory results published in patent US20180267027A1, “FLUORESCENT BIOSENSOR FOR […] ASSAY” (The Regents of the University of California, priority 2015, published 2018).

How the values were obtained:
[1] = In vitro fluorescence assays of SAH biosensors (turn-on, ligand selectivity); format: biochemical
Procedure: Other conditions, including temperature, concentrations of MgCl2, DFHBI, ligand or RNA, were varied in different experiments and are indicated in the figures. The RNA was renatured in buffer at 70° C. for 3 min and cooled to ambient temperature for 5 min prior to addition to the reaction solution. DFHBI was added to a solution containing buffer and ligand, and then RNA was added at the end before fluorescence measurement. Binding reactions were performed in 100 μL volumes and were incubated at the indicated temperature in a Corning Costar 3915 96-well black plate until equilibrium was reached, which in some cases takes 30 to 60 minutes. The fluorescence emission was measured using a Molecular Devices SpectraMax Paradigm Multi-Mode detection platform plate reader (Sunnyvale, Calif.) with the following instrument parameters: 448 nm excitation, 506 nm emission.

[2] = target: T1, protein lysine MTase SET7/9 (Homo sapiens, UniProt Q8WTS6); assay: Protein MTase SET7/9 activity assay with SAH biosensor; format: biochemical
T1 construct: purchased New England Biolabs Inc (Ipswich, Mass.)
T1 sequence (Q8WTS6 1-366): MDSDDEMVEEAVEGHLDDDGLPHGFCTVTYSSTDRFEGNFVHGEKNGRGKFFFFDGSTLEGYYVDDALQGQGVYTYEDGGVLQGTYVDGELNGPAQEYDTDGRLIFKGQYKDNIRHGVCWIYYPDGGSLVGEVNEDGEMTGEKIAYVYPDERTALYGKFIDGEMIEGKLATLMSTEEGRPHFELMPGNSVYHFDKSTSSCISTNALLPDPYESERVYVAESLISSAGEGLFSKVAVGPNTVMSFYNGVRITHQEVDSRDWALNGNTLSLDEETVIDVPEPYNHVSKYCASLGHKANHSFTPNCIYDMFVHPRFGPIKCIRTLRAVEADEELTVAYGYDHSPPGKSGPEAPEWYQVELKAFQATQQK
Procedure: To initiate the enzyme reaction, 5 μL of H3 peptide substrate (N′-[…]-LAGGKKC-C′) (SEQ ID NO:132) was added to 5 μL of 2×enzyme reaction solution containing SET7/9, SAM, and NEB HMT buffer. Generally, final concentrations are 50 μM H3 peptide, 0.1 U/μL SET7/9, 25 μM SAM, and lx NEB HMT buffer (50 mM Tris, pH 9.0, 5 mM MgCl2, and 4 mM DTT). The reaction solution was incubated at 37° C. for 2 hours to allow the enzyme reaction to proceed.
To initiate the fluorescent biosensor reaction, 10 μL of the enzyme reaction was added to 90 μL of biosensor reaction solution containing renatured RNA, DFHBI, and buffer. […] For the SAH control, SAH was added to a final concentration of 0.5 μM in place of the enzyme reaction. In vitro fluorescence assays were conducted as described above.

[3] = target: T2, SET7/9 (Homo sapiens, UniProt Q8WTS6); assay: High-throughput screening (HTS) assay of SET7/9 activity and inhibition, Z′ score; format: biochemical; conditions: 384-well plate, 16 replicates
T2 construct: purchased New England Biolabs Inc (Ipswich, Mass.)
T2 sequence (Q8WTS6 1-366): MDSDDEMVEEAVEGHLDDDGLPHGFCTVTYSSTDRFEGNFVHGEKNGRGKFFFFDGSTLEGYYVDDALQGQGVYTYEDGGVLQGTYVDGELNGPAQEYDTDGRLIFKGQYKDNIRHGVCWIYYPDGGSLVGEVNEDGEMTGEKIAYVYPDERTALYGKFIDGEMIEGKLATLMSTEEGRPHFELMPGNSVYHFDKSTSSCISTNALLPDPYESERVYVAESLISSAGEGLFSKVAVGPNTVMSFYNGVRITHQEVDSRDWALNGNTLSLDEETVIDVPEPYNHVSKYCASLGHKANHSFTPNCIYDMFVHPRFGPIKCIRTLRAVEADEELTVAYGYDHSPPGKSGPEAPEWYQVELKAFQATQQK
Procedure: For HTS experiments, samples were dispensed into a Grenier 781077 384-well flat bottom black plate using an Eppendorf Repeater […] pipetter to dispense reaction components. Z' scores were calculated from 16 well replicates in the 384-well plate. For the HTS SET7/9 activity assay, 3 μL of H3 peptide or water was added to 9 μL of reaction solution containing SET7/9 MTase, SAM, and NEB HMT Reaction Buffer in each well. Final concentrations are: 0.25 U/10 μL SET7/9, 25 μM SAM, 50 μM H3 peptide and 1×NEB HMT Reaction Buffer (50 mM Tris, pH 9.0, 5 mM MgCl2, and 4 mM DTT). After 30 min incubation at 37° C., to initiate the fluorescent biosensor reaction, 18 μL of biosensor reaction solution containing renatured RNA, DFHBI, and buffer was added to each well. […] In vitro fluorescence assays were conducted as described above. For the HTS SET7/9 inhibition assay, 4.5 μL of sinefungin or water was added to 8 μL of reaction solution containing SET7/9 MTase, and NEB HMT Reaction Buffer in each well. After 15 minutes incubation at 37° C., methylation reaction was initiated by adding 2.5 μL solution containing both SAM and H3 peptide. Final concentrations are: 0.25 U/10 μL SET7/9, 25 μM SAM, 50 μM H3 peptide, 300 μM sinefungin and 1×NEB HMT Reaction Buffer (50 mM Tris, pH 9.0, 5 mM MgCl2, and 4 mM DTT). After 30 min incubation at 37° C., to initiate the fluorescent biosensor reaction, 15 μL of biosensor reaction solution containing renatured RNA, DFHBI, and buffer was added to each well. […] In vitro fluorescence assays were conducted as described above.

[4] = tested on: E. coli BL21* cells; assay: In vivo fluorescence of RNA aptamers by flow cytometry; format: cell-based; conditions: 100 μM DFHBI
Procedure: To compare the fluorescence of Spinach2 and cpSpinach2 in live cells, pET31b plasmids encoding the RNA aptamers in a tRNA scaffold were transformed into E. coli BL21* cells. Following IPTG induction of transcription, cells were incubated with DFHBI and fluorescence was quantitated by flow cytometry. The mean cellular fluorescence was measured as a function of increasing DFHBI concentration in the media, in order to determine the optimal conditions for aptamer fluorescence. Unexpectedly, full saturation of fluorescence was not observed, even when E. coli cells were incubated in media containing up to 800 μM DFHBI (FIG. 5). However, the non-specific fluorescence signal increased when DFHBI concentration exceeded 100 μM. Thus, to balance higher fluorescence activation and lower non-specific background, a concentration of 100 μM was adopted for further experiments. Under these conditions, cellular fluorescence activation for Spinach2 and cpSpinach2 was on average 34 and 22-fold over background, respectively (FIG. 6). Thus, cpSpinach2 is a functional alternative to Spinach2. Although it currently performs slightly poorer in terms of fluorescence activation in live cells, improvements are likely possible through directed mutagenesis for higher thermal stability, improved folding efficiency and less Mg^2+ dependency. […]

[5] = tested on: E. coli BL21* wild-type and ΔMTAN cells; assay: Live cell detection of SAH accumulation, wild-type versus MTAN knockout, flow cytometry; format: cell-based
Procedure: A Targetron® Gene Knockout System (Sigma-Aldrich) was used to knock out the MTAN gene from E. coli BL21*, following manufacturer protocols.
Preparation of cell samples for flow cytometry was carried out by inoculating 2 mL of auto-induction media/Carb (F. Studier, Protein Expression and Purification 2005, 41, 207-234) with E. coli BL21* cells from colonies grown on an LB/Carb culture plate, containing pET31b plasmids encoding RNA aptamers. […] Cells were then grown aerobically overnight to saturation (0D600 varied from 5 to 10) and diluted to OD600˜0.01-0.05 in M9 minimal media (pH ˜6.0) with 100 μM DFHBI-1T. Cellular fluorescence was measured for 30,000 cells using a Life Technologies Attune N×T Acoustic Focusing Cytometer.

[6] = tested on: E. coli cells; assay: RNA stability in E. coli, cpSpinach2 fluorescence in M9 minimal media; format: cell-based; conditions: M9 minimal media without inducers, monitored for 4 h
Procedure: Fluorescence of cpSpinach2-expressing E. coli cells grown 16 hrs in auto-induction media, then pelleted and re-suspended in M9 minimal media without RNA transcription inducers.
RNA stability in E. coli: For the time-course experiment shown in FIG. 4D, E. coli cells from overnight culture (16 h post-inoculation and induction) were pelleted and re-suspended in M9 minimal media without transcriptional inducers (lactose). To analyze the stability of RNA levels under these conditions, E. coli cells expressing cpSpinach2 were processed using the same procedures and fluorescence was monitored for 4 h. Fluorescence readings remained stable for up to 3 h in M9 minimal media. Therefore, we expect that the related biosensor levels would be stable in the same time-frame, so the fluorescence change shown in FIG. 4D reflects the dynamic change in SAH levels.

B1: Aeh1-4: SAH biosensor, SEQ ID NO: 44 (nucleic acid)
chain: CGCCCCGAGGAGCGCTGCAACAGGTTGTTGAGTAGAGTGTGAGCTCCGTAACTAGTTACATCGCAAGATGTAACTGAATGAAATGGTGAAGGACGGGTCCACCTGCCAGGCTCGGGGATGGCGCCCCATCGTTCCAACGGCGCTCAGCGAAA
fluorescence response to SAH at low magnesium ([1]; 3 mM magnesium): decreased fluorescence turn-on
fluorescence turn-on ([1]; 37° C., 10 mM Mg^2+): around 5 fold
change of fluorescence turn-on with increasing magnesium ([1]; magnesium from 1 to 20 mM): marked improvement in fluorescence turn-on
fluorescence response to SET7/9 activity [2]: displayed a fluorescence response to SET7/9 activity
Z′ score, substrate screen [3]: 0.74
Z′ score, inhibitor screen ([3]; 300 μM sinefungin): 0.44

B2: cpSpinach2: circular permutant of the Spinach2 aptamer, SEQ ID NO: 93 (nucleic acid)
chain: GCAGCCTACTTGTTGAGTAGAGTGTGAGCTCCGTAACTAGTTACATCGCAAGATGTAACTGAATGAAATGGTGAAGGACGGGTCCAGTAGGCTGC
modifications: expressed or natural sequence
cellular fluorescence activation over background [4]: 22 fold
fold change in fluorescence between wild-type and MTAN knockout strain 2 ([5]; E. coli BL21* MTAN knockout strain 2): 1.4 ×
fluorescence signal in ΔMTAN versus wild-type cells ([5]; E. coli BL21*, flow cytometry): no significant difference in signal
time fluorescence readings remained stable [6]: up to 3 h
